Measurements from US20250320281A1.

Assays:
[1] = target: JR-FL gp120 ΔV1/ΔV2 (HIV-1); experiment: ELISA, antigen-coated wells
[2] = target: HIV-1 Env of isolate MGRM-AG-003 (HIV-1); experiment: cell-based or functional assay
[3] = target: HIV-1 Env of isolate MGRM-AG-005 (HIV-1); experiment: cell-based or functional assay
[4] = target: HIV-1 Env of isolate MGRM-AG-008 (HIV-1); experiment: cell-based or functional assay
[5] = target: HIV-1 Env of isolate 92UG005 (pseudovirus) (HIV-1); experiment: cell-based or functional assay
[6] = target: HIV-1 Env of isolate MGRM-AG-006 (HIV-1); experiment: cell-based or functional assay
[7] = target: HIV-1 Env of isolate 92BR020 (subtype B pseudovirus) (HIV-1); experiment: cell-based or functional assay
[8] = target: HIV-1 Env of isolate 93MW959 (HIV-1); experiment: cell-based or functional assay
[9] = target: HIV-1 Env of isolate MGRM-Chronic-B-010 (subtype B pseudovirus) (HIV-1); experiment: cell-based or functional assay
[10] = target: HIV-1 Env of isolate JR-FL (subtype B pseudovirus) (HIV-1); experiment: cell-based or functional assay
[11] = target: HIV-1 Env of isolate MGRM-AG-001 (HIV-1); experiment: cell-based or functional assay
[12] = target: HIV-1 Env of isolate MGRM-F1-018 (HIV-1); experiment: cell-based or functional assay
[13] = target: HIV-1 JRCSF Env (pseudovirus, clade B) (HIV-1) (UniProt P20871); experiment: cell-based or functional assay
[14] = target: HIV-1 Env of isolate MGRM-Chronic-B-008 (subtype B pseudovirus) (HIV-1); experiment: cell-based or functional assay
[15] = target: HIV-1 Env of isolate 93IN905 (pseudovirus) (HIV-1); experiment: cell-based or functional assay
[16] = target: HIV-1 Env of isolate MGRM-AE-007 (subtype AE) (HIV-1); experiment: cell-based or functional assay
[17] = target: HIV-1 Env of isolate 92UG024 (HIV-1); experiment: cell-based or functional assay

5329_C19 (PGT-136) (antibody), sequence (VH): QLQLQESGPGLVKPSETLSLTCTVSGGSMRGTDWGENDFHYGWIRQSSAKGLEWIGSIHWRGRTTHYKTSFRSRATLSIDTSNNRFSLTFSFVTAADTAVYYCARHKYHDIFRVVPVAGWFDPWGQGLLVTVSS
5329_C19 (PGT-136) (antibody), sequence (VL): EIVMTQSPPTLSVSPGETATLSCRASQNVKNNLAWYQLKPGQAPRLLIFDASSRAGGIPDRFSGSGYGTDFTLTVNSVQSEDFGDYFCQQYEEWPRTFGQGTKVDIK
5345_I01 (PGT-137) (antibody), sequence (VH): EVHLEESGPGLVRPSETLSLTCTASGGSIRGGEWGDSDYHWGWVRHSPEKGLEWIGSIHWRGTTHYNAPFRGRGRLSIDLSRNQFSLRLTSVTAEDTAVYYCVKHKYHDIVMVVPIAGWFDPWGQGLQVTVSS
5345_I01 (PGT-137) (antibody), sequence (VL): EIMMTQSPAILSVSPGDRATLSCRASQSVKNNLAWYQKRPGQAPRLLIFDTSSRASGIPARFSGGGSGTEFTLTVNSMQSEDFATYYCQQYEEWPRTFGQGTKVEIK

| Substance | EC50 [1] [µg/mL] | IC50 [2] [µg/mL] | IC50 [3] [µg/mL] | IC50 [4] [µg/mL] | IC50, pseudovirus neutralization [5] [µg/mL] | IC50 [6] [µg/mL] | IC50 (µg/mL), pseudovirus neutralization [7] [µg/mL] | neutralization IC50 [8] [µg/mL] | IC50 (µg/mL), pseudovirus neutralization [9] [µg/mL] | IC50 (µg/mL), pseudovirus neutralization [10] [µg/mL] | IC50 [11] [µg/mL] | IC50 (µg/mL), pseudovirus neutralization [12] [µg/mL] | IC50 neutralization [13] [µg/mL] | IC50 (µg/mL), pseudovirus neutralization [14] [µg/mL] | Primary Neutralization Index (B cell culture supernatant) [15] | IC50 (µg/mL), pseudovirus neutralization [16] [µg/mL] | IC50 (µg/mL), pseudovirus neutralization [17] [µg/mL] |
| --- | --- | --- | --- | --- | --- | --- | --- | --- | --- | --- | --- | --- | --- | --- | --- | --- | --- |
| 5123_A06 (PGT-125) (antibody) | 0.6 | > 50 | > 50 | > 50 | > 50 | 0.008 | 0.016 | 37.5 | 0.006 | 0.009 | > 50 | > 50 | 0.006 | > 50 | – | – | – |
| 5141_B17 (PGT-126) (antibody) | 0.3 | > 50 | 1.21 | > 50 | 0.037 | 0.01 | 0.015 | 9.44 | 0.005 | 0.014 | > 50 | 14.9 | 0.0061 | 5.89 | – | – | – |
| 5145_B14 (PGT-127) (antibody) | 0.7 | > 50 | > 50 | > 50 | 1.11 | 0.021 | 0.059 | 6.95 | 0.019 | 0.029 | > 50 | 3.59 | – | 21.5 | – | – | – |
| 5343_B08 (PGT-135) (antibody) | 0.1 | – | – | – | – | – | – | – | – | – | – | – | 0.113 | – | 43 | > 50 | 0.01 |
| 5345_I01 (PGT-137) (antibody) | 0.2 | – | – | – | – | – | – | – | – | – | – | – | – | – | 3.3 | > 50 | 0.106 |
| 4858_P08 (PGT-123) (antibody) | 0.3 | > 50 | 0.149 | 19.2 | 9.79 | 0.014 | 0.008 | 0.011 | 0.009 | 0.014 | 2.51 | 0.054 | 0.0423 | 0.01 | – | – | – |
| 4877_D15 (PGT-122) (antibody) | 0.3 | 43.7 | 33.9 | > 50 | > 50 | 0.028 | 0.021 | 0.016 | 0.018 | 0.026 | 14.5 | 0.563 | 0.0727 | 0.017 | – | – | – |
| 5329_C19 (PGT-136) (antibody) | 0.3 | – | – | – | – | – | – | – | – | – | – | – | > 10 | – | 5.6 | > 50 | 0.052 |
